Data reported in PMC4053984.

Target: PRDM9Cst (Mus musculus (CAST/EiJ)) (UniProt Q96EQ9)
Experiment: EMSA competition
Details: 10 mM Tris pH 7.5, 50 mM KCl, 1 mM DTT, 50 ng/ul poly(dI/dC), 0.05% NP-40, 0.5 pmol labelled dsDNA (printed pmol/l), 3 ul E. coli extract in 20 ul, 40 min, 5% …

PRDM9Cst (Mus musculus (CAST/EiJ)), sequence (Q96EQ9 whole entry): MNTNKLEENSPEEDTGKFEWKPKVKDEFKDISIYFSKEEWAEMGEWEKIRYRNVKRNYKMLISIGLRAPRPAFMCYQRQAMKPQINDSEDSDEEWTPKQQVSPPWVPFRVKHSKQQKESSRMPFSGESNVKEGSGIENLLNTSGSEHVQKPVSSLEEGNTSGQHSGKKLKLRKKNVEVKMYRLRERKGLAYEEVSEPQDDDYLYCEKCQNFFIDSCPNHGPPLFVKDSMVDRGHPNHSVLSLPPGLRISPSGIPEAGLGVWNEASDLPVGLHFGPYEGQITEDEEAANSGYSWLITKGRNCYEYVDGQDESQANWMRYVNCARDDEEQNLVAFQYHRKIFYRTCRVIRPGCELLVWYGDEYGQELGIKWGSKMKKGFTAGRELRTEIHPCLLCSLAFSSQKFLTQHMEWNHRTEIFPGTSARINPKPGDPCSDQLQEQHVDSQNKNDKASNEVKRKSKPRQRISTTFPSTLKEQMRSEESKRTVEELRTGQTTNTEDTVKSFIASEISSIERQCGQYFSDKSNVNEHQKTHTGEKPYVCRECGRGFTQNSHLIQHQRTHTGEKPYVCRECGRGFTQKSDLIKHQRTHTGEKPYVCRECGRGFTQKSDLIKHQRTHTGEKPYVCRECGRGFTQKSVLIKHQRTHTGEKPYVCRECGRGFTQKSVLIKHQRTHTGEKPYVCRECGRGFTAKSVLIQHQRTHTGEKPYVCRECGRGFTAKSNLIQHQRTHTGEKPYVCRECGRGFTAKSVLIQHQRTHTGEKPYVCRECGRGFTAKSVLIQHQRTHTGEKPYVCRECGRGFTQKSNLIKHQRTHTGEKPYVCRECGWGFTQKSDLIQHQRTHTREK

Row | Sequence | binding signal (scale: reference) | binding signal (fold stronger than CAST sequence)
1 | ATAAGTGTTCAGACTTGGACTCTGCCCTTCCTTTAC (double strand) [Hlx1 36 bp CAST] | 1 | 
2 | ATAGTGTGCAGACTTGGACCCTGCCCTTTCTTTACG (double strand) [Hlx1 36 bp B6] |  | 2.9
